Test [1] addresses T1, human CXCR4 (human, UniProt P61073 1-352).
T1 construct: also called hCXCR4; Fusin
The experiment in a line: phage display selection on hCXCR4 lipoparticles or CXCR4 positive cells.

The target in test [2] is T1, human CXCR4. The experiment in a line: SPR (Biacore), CXCR4 expressed on lipoparticles. In general terms: Surface plasmon resonance follows binding to a sensor surface in real time, without labels.
The target of test [3] is T1, human CXCR4. The test is described as follows: SPR.
The next test concerns the target T2, CCR5 (on lipoparticles) (UniProt P51681 1-352, limits assumed).
T2 construct: whole, on cells; Whole receptor in lipoparticles; also called CCR5 positive lipoparticles; GPCR CCR5
The test is described as follows: ELISA, single point, periplasmic fraction on CCR5 positive lipoparticles, 450 nm absorbance.

The target in test [4] is T1, human CXCR4. The test is described as follows: not told (affinity for CXCR4); parent i-body before affinity maturation.
Test [5] addresses T1, human CXCR4. The experiment in a line: SPR (Biacore), immobilised CXCR4 lipoparticles.
For test [6], the target named is T1, human CXCR4. The experiment in a line: SPR (Biacore), immobilised CXCR4 lipoparticles. The source holds these as a separate data set.
The target in test [7] is T1, human CXCR4. The experiment in a line: cell-based or functional assay.
Test [8] addresses T1, human CXCR4. The test is described as follows: cell-based or functional assay. This is another data set of the same source.
Test [9] addresses T1, human CXCR4. The experiment in a line: off-rate, CXCR4 expressed on lipoparticles.
For test [10], the target named is T1, human CXCR4. The test is described as follows: SPR (Biacore), biotinylated CXCR4 lipoparticles captured on streptavidin (bt. CXCR4), i-body injected.
The target of test [11] is T1, human CXCR4. The test is described as follows: not told.
The target in test [12] is T1, human CXCR4. The test is described as follows: cell-based or functional assay. The source holds these as a separate data set.
Test [13] deals with T3, human serum albumin (human, UniProt P02768 25-609).
T3 construct: also called HSA; HAS
The experiment in a line: SPR.

Test [14] concerns the target T3, human serum albumin. The experiment in a line: SPR (Biacore), binding to HSA by the SA21 peptide.
Test [15] deals with T1, human CXCR4. The experiment in a line: SPR (Biacore).
Test [16] addresses T1, human CXCR4. The experiment in a line: SPR (Biacore), biotinylated CXCR4 lipoparticles (bt.CXCR4), three successive injections in one cycle.
The target of test [17] is T1, human CXCR4. The experiment in a line: SPR (Biacore), biotinylated CXCR4 lipoparticles captured on streptavidin (bt. CXCR4), i-body injected. This is another data set of the same source.
Test [18] addresses T1, human CXCR4. The description is as above. This is another data set of the same source.
Test [19] has as its target T1, human CXCR4. The experiment in a line: flow cytometry on Ramos cells, anti-His-PE; i-body alone or with an excess of SDF-1, MAb 12G5 or AMD3100 [top panel].
Test [20] deals with T1, human CXCR4. The experiment in a line: flow cytometry on Ramos cells, anti-His-PE; i-body alone or with an excess of SDF-1, MAb 12G5 or AMD3100 [middle panel]. On the technique in general: Flow cytometry measures light scatter and fluorescence of single cells or particles in a stream.

“And” between values parts separate entries of the source, which are not always exact repeats. Equal values may be shown once. A value given as a limit tells only on which side of the number the result lay.

T1 sequence (P61073 whole entry): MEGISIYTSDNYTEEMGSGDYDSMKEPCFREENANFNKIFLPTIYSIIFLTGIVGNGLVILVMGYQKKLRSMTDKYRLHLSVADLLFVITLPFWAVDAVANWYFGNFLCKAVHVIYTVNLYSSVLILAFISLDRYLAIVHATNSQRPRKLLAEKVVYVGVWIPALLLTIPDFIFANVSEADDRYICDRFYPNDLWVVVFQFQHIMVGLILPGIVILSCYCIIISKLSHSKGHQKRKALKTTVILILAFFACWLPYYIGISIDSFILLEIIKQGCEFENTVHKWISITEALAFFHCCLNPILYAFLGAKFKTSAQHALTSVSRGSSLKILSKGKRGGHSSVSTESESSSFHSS
T2 sequence (P51681 whole entry): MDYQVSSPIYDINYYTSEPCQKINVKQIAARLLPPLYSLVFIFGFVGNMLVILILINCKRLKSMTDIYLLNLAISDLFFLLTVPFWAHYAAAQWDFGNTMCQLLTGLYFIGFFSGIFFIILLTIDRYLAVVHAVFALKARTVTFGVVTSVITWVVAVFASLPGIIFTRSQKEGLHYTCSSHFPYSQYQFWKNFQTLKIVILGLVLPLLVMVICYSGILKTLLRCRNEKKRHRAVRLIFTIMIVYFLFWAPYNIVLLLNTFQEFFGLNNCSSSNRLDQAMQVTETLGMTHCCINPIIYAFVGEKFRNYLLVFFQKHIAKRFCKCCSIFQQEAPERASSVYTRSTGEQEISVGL

B1: ADCX-54 (designed binder)
chain: LQVDIVPSQGEISVGESKFFLCQVAGRTIIVEISWFSPNGEKLTPNQQRISVVWNDDSSSTLTIYNANIDDAGIYKCVVVLSIRGKWELEATVNVKIFQ
notes: i-body (human NCAM1 domain 1 scaffold)
With B1, in the test with human CXCR4 [1], the binding result is given as “binds”.

B2: AM3-920 (designed binder)
chain: LQVDIVPSQGEISVGESKFFLCQVAGSGSGIRISWFSPNGEKLTPNQQRISVVWNDDSSSTLTIYNANIDDAGIYKCVVWRTGGYRHRYLVLGEATVNVKIFQ
One may read the Kd as the concentration at which binding is half-saturated. As a reminder, the kon is a measure of how fast the partners come together. Read a low kon as slower complex formation. Regarding B2, in the test with human CXCR4 [2], the Kd is 7.18 nM and 5.87 nM; the on-rate constant (kon) is 1.12e+06 M⁻¹ s⁻¹ and 1.26e+06 M⁻¹ s⁻¹.

B3: ADCX-99 (designed binder)
chain: LQVDIVPSQGEISVGESKFFLCQVAGSGSDIRISWFSPNGEKLTPNQQRISVVWNDDSSSTLTIYNANIDDAGIYKCVVYRTGGYRHRALVLGEATVNVKIFQ
notes: i-body (human NCAM1 domain 1 scaffold); also called wild-type i-body ADCX-99
Turning to B3, the Kd with human CXCR4 [3] is 643 nM; with human CXCR4 [4], > 700 nM; with human CXCR4 [5] it was ~600 nM and 623 nM; in the test with human CXCR4 [6], 700 nM. For the same molecule, the binding result with CCR5 (on lipoparticles) was “no binding”.

B4: AM3-523 (designed binder)
chain: LQVDIVPSQGEISVGESKFFLCQVAGSGSHMRISWFSPNGEKLTPNQQRISVVWNDDSSSTLTIYNANIDDAGIYKCVVWRVGGYRHRALVLGEATVNVKIFQ
Consider B4, for which, in the test with human CXCR4 [2], the Kd is 8.53 nM and 9.47 nM; the kon is 1e+06 M⁻¹ s⁻¹ and 965000 M⁻¹ s⁻¹. For the same molecule, the “cAMP inhibition IC50” value in the test with human CXCR4 [7] is 225 nM. Further, the “IC50 (nM) in β-Arrestin BRET assay (Antagonist mode in the presence of 100 nM SDF-1)” value (“IC50 (nM) in β-Arrestin BRET assay” below) with human CXCR4 [8] was determined as 12700 nM.

B5: AM4-613 (designed binder)
chain: LQVDIVPSQGEISVGESKFFLCQVAGSKSDVRISWFSPNGEKLTPNQQRISVVWNDDSSSTLTIYNANIDDAGIYKCVVWRTGGYRHRYLVLGEATVNVKIFQ
As to B5, in the test with human CXCR4 [2], binding was characterised by a dissociation constant (Kd) of 7.83 nM and the kon amounted to 1.33e+06 M⁻¹ s⁻¹. Besides, the “IC50 (nM) in β-Arrestin BRET assay” value with human CXCR4 [8] is 1830 nM.

B6: AM4-1121 (designed binder)
chain: LQVDIVPSQGEISVGESKFFLCQVAGSKSGIRISWFSPNGEKLTPNQQRISVVWNDDSSSTLTIYNANIDDAGIYKCVVYRTGGYRHRYLRLGEATVNVKIFQ
Broadly, the koff is a measure of how fast the partners let go of each other. Turning to B6, in the test with human CXCR4 [2], the Kd was 7.21 nM and 6.7 nM; the association rate constant (kon) was 1.29e+06 M⁻¹ s⁻¹ and 1.42e+06 M⁻¹ s⁻¹. Further, the “cAMP inhibition IC50” value in the test with human CXCR4 [7] amounted to 125 nM. Moreover, the “IC50 (nM) in β-Arrestin BRET assay” value with human CXCR4 [8] is 796 nM. This molecule also came in with a koff in the test with human CXCR4 [9] of 0.0115 s⁻¹.

B7: AM4-746 (designed binder)
chain: LQVDIVPSQGEISVGESKFFLCQVAGSKSNIRISWFSPNGEKLTPNQQRISVVWNDDSSSTLTIYNANIDDAGIYKCVVYRTGGYRHRYLKLGEATVNVKIFQ
In the test with human CXCR4 [2], B7 registered a Kd of 5.36 nM and a kon of 2.5e+06 M⁻¹ s⁻¹. Further, the “cAMP inhibition IC50” value with human CXCR4 [7] was 115 nM. In the test with human CXCR4 [8], the “IC50 (nM) in β-Arrestin BRET assay” value came out at 741 nM.

B8: AM4-661 (designed binder)
chain: LQVDIVPSQGEISVGESKFFLCQVAGSKSDFRISWFSPNGEKLTPNQQRISVVWNDDSSSTLTIYNANIDDAGIYKCVVYRTGGYRHRYLVLGEATVNVKIFQ
As for B8, in the test with human CXCR4 [2], the Kd was 9.53 nM and 9.66 nM; the kon was 966000 M⁻¹ s⁻¹ and 983000 M⁻¹ s⁻¹. The “IC50 (nM) in β-Arrestin BRET assay” value with human CXCR4 [8] is 1540 nM.

B9: AM5-245 (designed binder)
chain: LQVDIVPSQGEISVGESKFFLCQAAGSGSHIRISWFSPNGEKLTPNQQRISVVWNDDSSSTLTIYNANIDDAGIYKCVVWRTGGYRHRALVLGEATVNVKIFQ
In the case of B9, in the test with human CXCR4 [2], the Kd was 14.9 nM and 15.9 nM; the kon was 813000 M⁻¹ s⁻¹ and 771000 M⁻¹ s⁻¹.

B10: AM3-466 (designed binder)
chain: LQVDIVPSQGEISVGESKFFLCQVAGSGSHQRISWFSPNGEKLTPNQQRISVVWNDDSSSTLTIYNANIDDAGIYKCVVWRTGAYRHRALVLGEATVNVKIFQ
Turning to B10, in the test with human CXCR4 [2], the equilibrium dissociation constant (Kd) is 13.8 nM and 15.7 nM; the association rate constant (kon) was 465000 M⁻¹ s⁻¹ and 426000 M⁻¹ s⁻¹. In addition, in the test with human CXCR4 [8], the “IC50 (nM) in β-Arrestin BRET assay” value was 6320 nM.

B11: ADCX-306 (designed binder)
chain: LQVDIVPSQGEISVGESKFFLCQVAGFQEWVNWFSPNGEKLTPNQQRISVVWNDDSSSTLTIYNANIDDAGIYKCVVTMPHTLNNLDVRTEATVNVKIFQ
notes: as for B1
Consider B11, for which the Kd with human CXCR4 [5] was found to be 22500 nM; with human CXCR4 [10], 22500 nM; with human CXCR4 [6], 22000 nM.

B12: 21H5 control i-body (designed binder)
chain: LQVDIVPSQGEISVGESKFFLCQVAGDAKDKDISWFSPNGEKLTPNQQRISVVWNDDSSSTLTIYNANIDDAGIYKCVVTGSDAMSNYSYPISESEATVNVKIFQ
notes: Control i-body used as isotype control; also called negative control i-body; isotype control i-body
Take B12: the “cAMP inhibition IC50” value in the test with human CXCR4 [7] is > 10000 nM. Moreover, in the test with human CXCR4 [11], the binding result is reported as “no binding”. Also, the “Calcium Inhibition EC50” value with human CXCR4 [12] is > 10000 nM.

B13: AM3-114-Im7-FH-SA21 dual specificity i-body (designed binder)
chain: MALQVDIVPSQGEISVGESKFFLCQVAGSLSGIRISWFSPNGEKLTPNQQRISVVWNDDSSSTLTIYNANIDDAGIYKCVVWRTGGYRHRYLVLGEATVNVKIFQGGGGSELKNSISDYTEAEFVQLLKEIEKENVAATDDVLDVLLEHFVKITEHPDGTDLIYYPSDNRDDSPEGIVKEIKEWRAANGKPGFKQGGGGGSDYKDDDDKGSGHHHHHHHHGGGGSRLIEDICLPRWGCLWEDD
Take B13: the dissociation constant Kd with human CXCR4 [3] was 5 to 10 nM; with human serum albumin [13], ~500 nM; with human serum albumin [14] it was 518 nM; with human CXCR4 [15], 9 nM; with human CXCR4 [16] it was 9.2 nM. The molecule further registered a koff in the test with human CXCR4 [16] of 0.002 s⁻¹. Moreover, in the test with human CXCR4 [16], the kon amounted to 210000 M⁻¹ s⁻¹.

B14: ADCX-668 (designed binder)
chain: LQVDIVPSQGEISVGESKFFLCQVAGTIWYEQISWFTPNGEKLTPNQQRISVVWNDDSSSTLTIYNANIDDAGIYKCVVWTRPVTSSMHEATVNVKIFQ
notes: as for B1
B14: the Kd worked out at 42300 nM in the test with human CXCR4 [17] and 42000 nM with human CXCR4 [6].

B15: ADCX-6 (designed binder)
chain: LQVDIVPSQGEISVGESKFFLCQVAGLTSLEGISWFSPNGEKLTPNQQRISVVWNDDSSSTLTIYNANIDDAGIYKCVVEDHPQYSKMEEATVNVKIFQ
notes: i-body (human NCAM1 domain 1 scaffold); also called ACDX-6
On to B15, for which the binding result with human CXCR4 [1] is given as “binds”.

B16: ADCX-272 (designed binder)
chain: LQVDIVPSQGEISVGESKFFLCQVAGHLEVRSISWFSPNGEKLTPNQQRISVVWNDDSSSTLTIYNANIDDAGIYKCVVEQRGRSQSYFSEATVNVKIFQ
notes: as for B1
For the molecule B16, the binding result in the test with CCR5 (on lipoparticles) is recorded as “no binding”. The Kd came out at 1620 nM with human CXCR4 [18] and 1600 nM with human CXCR4 [6].

B17: AM3-114-6H (designed binder)
chain: EAEALQVDIVPYQGEISVGESKFFLCQVAGSLSGIRISWFSPNGEKLTPNQQRISVVWNDDSSSTLTIYNANIDDAGIYKCVVWRTGGYRHRYLVLGEATVNVKIFQ
notes: Construct with N-terminal EAEA and 6H tag, detected with anti-His-PE; not shown: 6H tag (six histidines by the label)
As for B17, in the test with human CXCR4 [19], the binding result is on record as “binds”.

B18: AM4-272-6H (designed binder)
chain: EAEALQVDIVPSQGEISVGESKFFLCQVAGSYSDYRISWFSPNGEKLTPNQQRISVVWNDDSSSTLTIYNANIDDAGIYKCVVYRIGGYRHRYLVLGEATVNVKIFQ
notes: as for B17
Regarding B18, the binding result with human CXCR4 [20] is listed as “binds”.
